Assay results taken from the supplement of paper PMC9112550, “Optimization of the antimicrobial peptide Bac7 by deep mutational scanning” (BMC Biology, 2022).

What follows are sequences tested on Escherichia coli TOP10 (assay: shrunken log2 fold change of peptide-encoding DNA abundance (4.5 h post-induction vs induction); higher = less antimicrobial activity (less host growth inhibition)). Conditions: time post-induction: 4.5 h; library: site-saturation at positions 5, 18, 19, 20.
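Also: peptides expressed intracellularly from a pBAD plasmid library in pooled LB shake-flask culture, induced with 0.3% L-arabinose, DNA abundance read by NGS, three biological replicates, DESeq2 with apeglm shrinkage.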

Sequence	shrunken log2 fold change
RRIRARPPRLPRPRPRPLFKPRP	0.117
RRIRARPPRLPRPRPRPLGMPRP	0.0985
RRIRARPPRLPRPRPRPLGSPRP	0.471
RRIRARPPRLPRPRPRPLGYPRP	0.223
RRIRARPPRLPRPRPRPLHCPRP	0.617
RRIRARPPRLPRPRPRPLHLPRP	0.0337
RRIRARPPRLPRPRPRPLHSPRP	0.0941
RRIRARPPRLPRPRPRPLHWPRP	0.387
RRIRARPPRLPRPRPRPLIHPRP	-0.117
RRIRARPPRLPRPRPRPLNDPRP	0.0895
RRIRARPPRLPRPRPRPLNGPRP	0.0986
RRIRARPPRLPRPRPRPLPLPRP	0.186
RRIRARPPRLPRPRPRPLPNPRP	0.286
RRIRARPPRLPRPRPRPLQVPRP	0.151
RRIRARPPRLPRPRPRPLRCPRP	0.242
RRIRARPPRLPRPRPRPLSEPRP	0.172
RRIRARPPRLPRPRPRPLSFPRP	0.0158
RRIRARPPRLPRPRPRPLSKPRP	-0.0286
RRIRARPPRLPRPRPRPLSMPRP	-0.129
RRIRARPPRLPRPRPRPLTGPRP	0.172
RRIRARPPRLPRPRPRPLTNPRP	0.303
RRIRARPPRLPRPRPRPLTPPRP	0.548
RRIRARPPRLPRPRPRPLTQPRP	0.209
RRIRARPPRLPRPRPRPLVTPRP	0.178
RRIRARPPRLPRPRPRPLYGPRP	-0.203

Sequence	shrunken log2 fold change
RRIRARPPRLPRPRPRPMASPRP	0.543
RRIRARPPRLPRPRPRPMAYPRP	0.546
RRIRARPPRLPRPRPRPMCEPRP	0.797
RRIRARPPRLPRPRPRPMCLPRP	0.0284
RRIRARPPRLPRPRPRPMCVPRP	0.188
RRIRARPPRLPRPRPRPMEKPRP	-0.00226
RRIRARPPRLPRPRPRPMELPRP	0.114
RRIRARPPRLPRPRPRPMFRPRP	-0.217
RRIRARPPRLPRPRPRPMFWPRP	0.19
RRIRARPPRLPRPRPRPMHIPRP	-0.132
RRIRARPPRLPRPRPRPMIFPRP	0.292
RRIRARPPRLPRPRPRPMIPPRP	0.0233
RRIRARPPRLPRPRPRPMLEPRP	0.455
RRIRARPPRLPRPRPRPMLHPRP	0.206
RRIRARPPRLPRPRPRPMMGPRP	0.082
RRIRARPPRLPRPRPRPMNHPRP	-0.151
RRIRARPPRLPRPRPRPMPQPRP	0.378
RRIRARPPRLPRPRPRPMPRPRP	0.827
RRIRARPPRLPRPRPRPMQVPRP	0.277
RRIRARPPRLPRPRPRPMRLPRP	1.29
RRIRARPPRLPRPRPRPMRQPRP	0.829
RRIRARPPRLPRPRPRPMSKPRP	0.16
RRIRARPPRLPRPRPRPMTLPRP	0.151
RRIRARPPRLPRPRPRPMTTPRP	0.505
RRIRARPPRLPRPRPRPMVGPRP	0.548

Sequence	shrunken log2 fold change
RRIRARPPRLPRPRPRPMYAPRP	0.207
RRIRARPPRLPRPRPRPMYEPRP	-0.0125
RRIRARPPRLPRPRPRPMYKPRP	-0.189
RRIRARPPRLPRPRPRPMYWPRP	-0.0443
RRIRARPPRLPRPRPRPNAAPRP	1.13
RRIRARPPRLPRPRPRPNAFPRP	0.424
RRIRARPPRLPRPRPRPNARPRP	0.124
RRIRARPPRLPRPRPRPNCKPRP	-0.0213
RRIRARPPRLPRPRPRPNDLPRP	0.172
RRIRARPPRLPRPRPRPNEIPRP	-0.179
RRIRARPPRLPRPRPRPNELPRP	0.343
RRIRARPPRLPRPRPRPNEVPRP	0.0341
RRIRARPPRLPRPRPRPNEWPRP	0.0144
RRIRARPPRLPRPRPRPNFFPRP	0.349
RRIRARPPRLPRPRPRPNHRPRP	0.00751
RRIRARPPRLPRPRPRPNKNPRP	0.0222
RRIRARPPRLPRPRPRPNKRPRP	0.214
RRIRARPPRLPRPRPRPNLLPRP	0.00335
RRIRARPPRLPRPRPRPNLNPRP	-0.0397
RRIRARPPRLPRPRPRPNLQPRP	0.177
RRIRARPPRLPRPRPRPNNGPRP	0.00213
RRIRARPPRLPRPRPRPNPGPRP	0.462
RRIRARPPRLPRPRPRPNQPPRP	0.0397
RRIRARPPRLPRPRPRPNRSPRP	-0.229
RRIRARPPRLPRPRPRPNRYPRP	-0.191

Sequence	shrunken log2 fold change
RRIRARPPRLPRPRPRPNSYPRP	-0.00611
RRIRARPPRLPRPRPRPNTAPRP	0.181
RRIRARPPRLPRPRPRPNTDPRP	-0.127
RRIRARPPRLPRPRPRPNTEPRP	0.154
RRIRARPPRLPRPRPRPNVPPRP	0.0126
RRIRARPPRLPRPRPRPNWDPRP	0.0564
RRIRARPPRLPRPRPRPNYFPRP	-0.251
RRIRARPPRLPRPRPRPPACPRP	0.817
RRIRARPPRLPRPRPRPPAHPRP	0.912
RRIRARPPRLPRPRPRPPCFPRP	0.482
RRIRARPPRLPRPRPRPPEIPRP	0.301
RRIRARPPRLPRPRPRPPFHPRP	0.386
RRIRARPPRLPRPRPRPPHLPRP	2.23
RRIRARPPRLPRPRPRPPHMPRP	0.661
RRIRARPPRLPRPRPRPPKPPRP	0.689
RRIRARPPRLPRPRPRPPKSPRP	0.658
RRIRARPPRLPRPRPRPPLTPRP	0.536
RRIRARPPRLPRPRPRPPNDPRP	0.459
RRIRARPPRLPRPRPRPPNGPRP	-0.00234
RRIRARPPRLPRPRPRPPNIPRP	0.0251
RRIRARPPRLPRPRPRPPNKPRP	0.23
RRIRARPPRLPRPRPRPPNRPRP	0.499
RRIRARPPRLPRPRPRPPQQPRP	0.758
RRIRARPPRLPRPRPRPPRMPRP	0.949
RRIRARPPRLPRPRPRPPRRPRP	0.923

Sequence	shrunken log2 fold change
RRIRARPPRLPRPRPRPPRTPRP	1.12
RRIRARPPRLPRPRPRPPRVPRP	0.875
RRIRARPPRLPRPRPRPPSDPRP	0.705
RRIRARPPRLPRPRPRPPTMPRP	0.407
RRIRARPPRLPRPRPRPPTPPRP	1.33
RRIRARPPRLPRPRPRPPVKPRP	0.404
RRIRARPPRLPRPRPRPPVNPRP	0.36
RRIRARPPRLPRPRPRPPWEPRP	0.558
RRIRARPPRLPRPRPRPPWRPRP	0.816
RRIRARPPRLPRPRPRPQCGPRP	0.436
RRIRARPPRLPRPRPRPQCHPRP	0.441
RRIRARPPRLPRPRPRPQCSPRP	0.111
RRIRARPPRLPRPRPRPQCVPRP	0.0695
RRIRARPPRLPRPRPRPQEDPRP	0.124
RRIRARPPRLPRPRPRPQEEPRP	0.0293
RRIRARPPRLPRPRPRPQEMPRP	-0.0254
RRIRARPPRLPRPRPRPQEYPRP	0.0643
RRIRARPPRLPRPRPRPQFDPRP	0.545
RRIRARPPRLPRPRPRPQFFPRP	0.0526
RRIRARPPRLPRPRPRPQGCPRP	0.03
RRIRARPPRLPRPRPRPQGFPRP	0.807
RRIRARPPRLPRPRPRPQGGPRP	0.499
RRIRARPPRLPRPRPRPQGWPRP	0.472
RRIRARPPRLPRPRPRPQILPRP	-0.0605
RRIRARPPRLPRPRPRPQKAPRP	0.0481

Sequence	shrunken log2 fold change
RRIRARPPRLPRPRPRPQKIPRP	-0.108
RRIRARPPRLPRPRPRPQKKPRP	-0.0278
RRIRARPPRLPRPRPRPQLDPRP	0.654
RRIRARPPRLPRPRPRPQLPPRP	0.327
RRIRARPPRLPRPRPRPQMIPRP	0.181
RRIRARPPRLPRPRPRPQMNPRP	-0.113
RRIRARPPRLPRPRPRPQMTPRP	0.0889
RRIRARPPRLPRPRPRPQMWPRP	0.102
RRIRARPPRLPRPRPRPQNWPRP	0.315
RRIRARPPRLPRPRPRPQPNPRP	0.396
RRIRARPPRLPRPRPRPQPQPRP	0.436
RRIRARPPRLPRPRPRPQPYPRP	-0.3
RRIRARPPRLPRPRPRPQQEPRP	-0.0196
RRIRARPPRLPRPRPRPQQFPRP	0.097
RRIRARPPRLPRPRPRPQQHPRP	0.284
RRIRARPPRLPRPRPRPQSHPRP	-0.162
RRIRARPPRLPRPRPRPQSMPRP	-0.0226
RRIRARPPRLPRPRPRPQTLPRP	0.0847
RRIRARPPRLPRPRPRPQTNPRP	0.36
RRIRARPPRLPRPRPRPQWAPRP	0.156
RRIRARPPRLPRPRPRPQWDPRP	0.00442
RRIRARPPRLPRPRPRPQYFPRP	-0.153
RRIRARPPRLPRPRPRPRAEPRP	0.983
RRIRARPPRLPRPRPRPRAPPRP	1.01
RRIRARPPRLPRPRPRPRCFPRP	0.222
